Results: article PMC4908242, “Functional Characterization of a Small-Molecule Inhibitor of the DKK1-LRP6 Interaction” (ISRN Molecular Biology, 2012)

Assays:
[1] = biological target: T1, Full-length human LRP6-Fc tagged (R&D Systems) (human, UniProt O75581 20-1613); assay: SPR; Biacore T100. LRP6-Fc (0.5 μg/mL) captured on Protein A that was amine-coupled to a CM3 chip; DKK1 3-54 nM injected; HBS-EP+ pH 7.4, 25°C; apparent KD; conditions: both partners purified
[2] = biological target: T1, Full-length human LRP6-Fc tagged (R&D …); assay: SPR; Biacore T100. LRP6-Fc immobilised by amine coupling on a CM3 chip (3000 RU); DKK1 3-54 nM injected for 180 sec; HBS-EP+ pH 7.4, 25°C; apparent KD calculated as kd/ka; conditions: both partners purified

T1 sequence (O75581 20-1613): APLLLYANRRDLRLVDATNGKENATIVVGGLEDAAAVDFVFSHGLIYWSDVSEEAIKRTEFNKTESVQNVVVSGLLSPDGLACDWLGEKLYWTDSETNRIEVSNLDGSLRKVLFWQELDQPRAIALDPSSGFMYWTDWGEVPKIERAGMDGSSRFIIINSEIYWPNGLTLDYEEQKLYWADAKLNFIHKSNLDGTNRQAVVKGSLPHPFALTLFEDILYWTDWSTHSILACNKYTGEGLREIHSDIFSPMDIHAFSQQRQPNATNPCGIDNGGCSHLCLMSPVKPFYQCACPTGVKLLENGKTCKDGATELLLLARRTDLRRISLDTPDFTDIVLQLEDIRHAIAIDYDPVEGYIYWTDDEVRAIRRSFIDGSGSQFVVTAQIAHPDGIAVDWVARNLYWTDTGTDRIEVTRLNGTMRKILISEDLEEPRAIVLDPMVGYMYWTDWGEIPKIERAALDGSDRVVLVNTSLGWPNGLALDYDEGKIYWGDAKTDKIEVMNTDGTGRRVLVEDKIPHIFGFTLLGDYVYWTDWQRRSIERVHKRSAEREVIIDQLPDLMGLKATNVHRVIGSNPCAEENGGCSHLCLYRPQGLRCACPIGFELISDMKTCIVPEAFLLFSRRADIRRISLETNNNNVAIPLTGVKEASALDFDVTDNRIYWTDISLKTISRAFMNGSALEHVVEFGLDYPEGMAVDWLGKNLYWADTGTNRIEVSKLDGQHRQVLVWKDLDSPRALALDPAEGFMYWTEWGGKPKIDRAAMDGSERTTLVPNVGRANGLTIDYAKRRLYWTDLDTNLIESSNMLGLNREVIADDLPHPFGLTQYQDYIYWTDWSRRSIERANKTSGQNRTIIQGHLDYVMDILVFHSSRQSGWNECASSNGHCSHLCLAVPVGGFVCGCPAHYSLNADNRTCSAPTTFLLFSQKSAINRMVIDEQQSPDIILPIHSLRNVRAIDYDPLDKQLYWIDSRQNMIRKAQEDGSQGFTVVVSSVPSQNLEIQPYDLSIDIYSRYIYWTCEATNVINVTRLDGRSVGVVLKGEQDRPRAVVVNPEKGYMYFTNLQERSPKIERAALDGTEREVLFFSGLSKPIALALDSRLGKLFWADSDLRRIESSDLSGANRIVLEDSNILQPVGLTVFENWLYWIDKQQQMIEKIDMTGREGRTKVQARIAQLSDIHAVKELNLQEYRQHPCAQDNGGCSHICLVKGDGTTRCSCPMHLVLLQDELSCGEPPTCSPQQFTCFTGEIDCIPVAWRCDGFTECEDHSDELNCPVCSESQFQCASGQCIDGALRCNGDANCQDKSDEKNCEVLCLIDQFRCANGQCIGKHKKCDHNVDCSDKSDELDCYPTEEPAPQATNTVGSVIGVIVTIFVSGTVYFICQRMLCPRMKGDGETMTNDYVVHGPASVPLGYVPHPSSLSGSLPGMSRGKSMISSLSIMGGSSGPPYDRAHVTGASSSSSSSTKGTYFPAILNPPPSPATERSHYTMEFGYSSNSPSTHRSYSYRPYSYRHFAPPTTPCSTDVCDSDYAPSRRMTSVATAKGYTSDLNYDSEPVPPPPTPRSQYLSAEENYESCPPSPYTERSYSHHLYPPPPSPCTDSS

B1: Commercial purified recombinant human DKK1 (ligand, UniProt O94907 32-266, looked up)
chain: TLNSVLNSNAIKNLPPPLGGAAGHPGSAVSAAPGILYPGGNKYQTIDNYQPYPCAEDEECGTDEYCASPTRGGDAGVQICLACRKRRKRCMRHAMCCPGNYCKNGICVSSDQNHFRGEIEETITESFGNDHSTLDGYSRRTTLSSKMYHTKGQEGSVCLRSSDCASGLCCARHFWSKICKPVLKEGQVCTKHRRKGSHGLEIFQRCYCGEGLSCRIQKDHHQASNSSRLHTCQRH
notes: Dickkopf 1 (DKK1), human, commercial recombinant protein; Neither catalogue number nor construct limits are printed; also called Dickkopf 1; commercial recombinant DKK1; source: bought: R&D Systems, purified recombinant
Binder B1 has a Kd [1] of 840 pM, a Kd [2] of 349 pM and a koff [2] of 0.00183 s⁻¹. For the same binder, the kon [2] was 5.26e+06 M⁻¹ s⁻¹.
